Laboratory results taken from patent US20120165204A1 (UNIVERSITY OF NORTH CAROLINA AT CHAPEL HILL, published 2012).

Biological target: T1, 546-4 T17N (LOV2 carries non-covalent FMN; the Rac1 C-terminal CAAX box may be prenylated and trimmed in cells)
T1 construct: only the lane label names it
Experiment: pull-down (CoIP) with FLAG-tagged PAK1 co-expressed in HEK 293 cells, FLAG/M2-agarose, in the dark; Western blot
Method: The cells were lysed in 50 mM Tris pH 7.5, 150 mM NaCl, and 1% Triton X-100 (lysis buffer) with addition of EDTA-free protease inhibitor cocktail (Roche). After brief centrifugation, the supernatants were incubated with FLAG/M2-agarose (Sigma) followed by washes with lysis buffer, and elution with lysis buffer containing 200 μg/ml 3× FLAG peptide (Sigma). All procedures were done at 4° C. under red light, facilitated using Handee spin columns (Pierce).

binding result: no binding
B1: FLAG-tagged PAK1 (enzyme, UniProt Q13153 1-545, looked up)
chain: MSNNGLDIQDKPPAPPMRNTSTMIGAGSKDAGTLNHGSKPLPPNPEEKKKKDRFYRSILPGDKTNKKKEKERPEISLPSDFEHTIHVGFDAVTGEFTGMPEQWARLLQTSNITKSEQKKNPQAVLDVLEFYNSKKTSNSQKYMSFTDKSAEDYNSSNALNVKAVSETPAVPPVSEDEDDDDDDATPPPVIAPRPEHTKSVYTRSVIEPLPVTPTRDVATSPISPTENNTTPPDALTRNTEKQKKKPKMSDEEILEKLRSIVSVGDPKKKYTRFEKIGQGASGTVYTAMDVATGQEVAIKQMNLQQQPKKELIINEILVMRENKNPNIVNYLDSYLVGDELWVVMEYLAGGSLTDVVTETCMDEGQIAAVCRECLQALEFLHSNQVIHRDIKSDNILLGMDGSVKLTDFGFCAQITPEQSKRSTMVGTPYWMAPEVVTRKAYGPKVDIWSLGIMAIEMIEGEPPYLNENPLRALYLIATNGTPELQNPEKLSAIFRDFLNRCLEMDVEKRGSAKELLQHQFLKIAKPLSSLTPLIAAAKEATKNNH
notes: Bait of the pull-down assays (FLAG/M2-agarose); not shown: FLAG tag
